Experiments:
purified protein [1] = substrate: N[C@@H](CO)C(=O)O; assay: purified protein; type: biochemical, Plasmodium vivax; conditions: apparent, 0.4 mM THF fixed, 25 °C, 50 mM HEPES pH 7, aerobic
purified protein [2] = substrate: Nc1nc2c(c(=O)[nH]1)N[C@@H](CNc1ccc(C(=O)N[C@@H](CCC(=O)O)C(=O)O)cc1)CN2; assay: purified protein; type: biochemical, Plasmodium vivax; conditions: apparent, 2 mM L-serine fixed, 25 °C, 50 mM HEPES pH 7, aerobic

B1: PvSHMT (Plasmodium vivax Sal-1) (protein)
chain: MFNNEPLEQIDKELHDILADEEKRQRETINLIASENLTNGAVRECLGNRVSNKYSEGYPKKRYYGGNDFIDKIEELCQKRALEAFNVSDEEWGVNVQPLSGSAANVQALYALVGVKGKIMGMHLCSGGHLTHGFFDEKKKVSITSDMFESKLYKCNSQGYVDLDAVREMALSFKPKVIICGYTSYPRDIDYQQFRQICDEVNAYLFADISHISSFVACNILNNPFLHADVVTTTTHKILRGPRSALIFFNKKRNPGIEQKINSAVFPSFQGGPHNNKIAAVACQLKEVHSPAFKEYTQQVLLNSKALAKALISKQIDLVTNGTDNHLIVVDLRKFSITGSKLQETCNAINVSLNKNTIPSDVDCVSPSGVRIGTPAMTTRGAKEKDMEFIADVLARAIKITVDLQEQYGKKLVDFKKGLPGNAQLQQLKQEVVTWAGALPFP
notes: recombinant, expressed in E. coli BL21(DE3) as in an earlier report; dimer
Km (purified protein [1]): 190 ± 20 µM | kcat (purified protein [1]): 1.26 ± 0.13 s⁻¹ | Km (purified protein [2]): 90 ± 20 µM | kcat (purified protein [2]): 1.26 ± 0.13 s⁻¹

— article PMC3502260, “Plasmodium serine hydroxymethyltransferase as a potential anti-malarial target: inhibition studies using improved methods for enzyme production and assay” (Malaria Journal, 2012)
